Reference: the supplement of paper PMC10126150
± gives the standard deviation of the averaged measurements.

Tested on: ATP
Assay: switch fluorescence ratio, 500 uM ATP over buffer (Cy3 cluster intensity, sum of 5 cycles each) (fold (ratio)); higher = stronger signal-on switching upon ATP binding; sequences stand for … in TCGTCGGCAGCGTCAGATGTGTATAAGAGACAGTTTTTTTTTTTTTTTTTTTTTTTTT…TC
Conditions: aptamer strand: ATP DNA aptamer (quencher-CACCTGGGGGAGTATTGCGGAGGAAGG + anchor), 100 nM annealed; ATP concentration: 500 uM
How it was run: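 Exposure to 500 uM ATP lasted 15 min at 22 °C before imaging, and a selection-buffer image was taken beforehand, for Cy3-labelled switching-strand clusters on a modified Illumina MiSeq flow-cell annealed to 100 nM quencher-labelled ATP aptamer. Five buffer/ATP cycles were run with NaOH stripping and re-annealing between them. The fluorescence ratio per cluster is summed target-cycle over summed buffer-cycle Cy3 intensity, averaged per switch-domain sequence. Clusters outside 100-1000 RFU were excluded.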

Row | Sequence | switch fluorescence ratio
1 | CCGCTAGCCT | 2.94 ± 0.53
2 | TGTAATAGGG | 0.979 ± 0.013
3 | TAAGGGTTAA | 0.994 ± 0.012
4 | GGTCGAAATT | 1.15 ± 0.31
5 | GGGTTTTTTA | 0.988 ± 0.022
6 | TAGCGATTAG | 1.01 ± 0.036
7 | AGGATTAAAT | 0.987 ± 0.026
8 | CAAATAATGA | 0.9642 ± 0.0036
9 | ATTGATATGG | 0.981 ± 0.04
10 | TAAATGGGCT | 1.04 ± 0.025
11 | AATCTGTGAA | 1 ± 0.012
12 | TTTTCTCCTC | 1.31 ± 0.35
13 | TAAGTGGTGC | 1.05 ± 0.031
14 | GGCGCCTGGG | 0.9875 ± 0.0033
15 | GAGTTTTGTG | 0.961 ± 0.015
16 | TCGTGTAGGG | 0.984 ± 0.014
17 | GCATAAGGGG | 0.992 ± 0.018
18 | AACTAGGTCG | 0.974 ± 0.058
19 | TGCCGCTTAA | 1.193 ± 0.0089
20 | AAAAGTTTGA | 0.9656 ± 0.008
21 | AGGGGGCTCG | 1 ± 0.024
22 | AACTAGACCT | 1.42 ± 0.019
23 | GCCGGTGCTC | 0.996 ± 0.021
24 | CTGGTAGGGG | 0.983 ± 0.015
25 | ACTATGAACC | 1.051 ± 0.0016

Row | Sequence | switch fluorescence ratio
26 | ACAAGTGAGG | 1.02 ± 0.023
27 | CGGGTGTGAC | 1.02 ± 0.023
28 | GAGTAAGGGG | 0.969 ± 0.025
29 | AAACGACATT | 1.13 ± 0.13
30 | ATCGGCACAT | 1.1 ± 0.012
31 | ATGTAGAGGG | 1.01 ± 0.02
32 | TCTATTTGGT | 0.9827 ± 0.0098
33 | TAGTGTGTGA | 1.02 ± 0.014
34 | GGGGAATAGG | 0.9962 ± 0.0084
35 | GGGTTAAATG | 0.989 ± 0.028
36 | GATGCCTTTG | 0.994 ± 0.018
37 | GTTTTTTTCT | 1 ± 0.051
38 | AATACGGGCG | 1.008 ± 0.0056
39 | CTTGAGGGGT | 0.971 ± 0.0099
40 | GCTAAGTATG | 1.04 ± 0.043
41 | GAATAGGGTA | 0.98 ± 0.018
42 | GAGATCGGTA | 1.006 ± 0.0069
43 | GTGATTTGT | 1.01 ± 0.03
44 | ATGGAATGAG | 0.998 ± 0.012
45 | TTTTGGTGGT | 1.01 ± 0.024
46 | GATCATTTTT | 0.984 ± 0.021
47 | GTCAGATAGG | 1.004 ± 0.008
48 | ATGTTGGTCG | 0.974 ± 0.028
49 | TACGCACATA | 1.48 ± 0.15
50 | CCGTCAAGGA | 1.94 ± 1.2

Row | Sequence | switch fluorescence ratio
51 | CTGTTATCGC | 1.01 ± 0.042
52 | TTCAGAGTTG | 0.985 ± 0.095
53 | TTGTTTTCAC | 1.28 ± 0.4
54 | GTATGTTAGG | 1.0143 ± 0.00055
55 | ACTATTCGCT | 1.02 ± 0.01
56 | GCGTTCGGCA | 0.991 ± 0.026
57 | ATGAGAGGAA | 0.981 ± 0.028
58 | AAATGGCCGG | 0.996 ± 0.024
59 | ATCCTTTTGG | 1.03 ± 0.094
60 | TGGGTAATTT | 1.03 ± 0.055
61 | GATCTTATCT | 1.03 ± 0.022
62 | AAATCATATG | 1.08 ± 0.087
63 | GGGTTTTTGC | 1.04 ± 0.045
64 | ACTTATCATT | 1.04 ± 0.013
65 | TGTTGTTTAC | 1.0216 ± 0.00012
66 | TGGGAAGGGT | 0.996 ± 0.059
67 | CCGTAGGAAT | 1.28 ± 0.068
68 | TGACTAATAA | 1.02 ± 0.013
69 | GGAGGGGAGC | 0.974 ± 0.056
70 | ACAGGTTGTT | 1.03 ± 0.071
71 | AGGGGTGCCG | 1.05 ± 0.026
72 | TTGTGGGTGT | 1.004 ± 0.0082
73 | GGCACGTATA | 1.17 ± 0.014
74 | AAGACTGAGC | 1.033 ± 0.0071
75 | AGGGTTCCTG | 0.954 ± 0.036

Row | Sequence | switch fluorescence ratio
76 | CTTAGTCAGC | 1.06 ± 0.099
77 | TTTTTGTCTG | 0.9814 ± 0.0091
78 | TTTTTGTAAC | 1.01 ± 0.022
79 | ATGGCTAGAA | 0.985 ± 0.026
80 | ATAGAATGGG | 0.9928 ± 0.0072
81 | CGGGATTCTG | 1 ± 0.031
82 | CGCCGGGGGG | 1.04 ± 0.046
83 | TTACTTGATG | 1.02 ± 0.031
84 | GGATGTTATG | 1.016 ± 0.0078
85 | GCAGTTTTCA | 1.04 ± 0.095
86 | CATTATTGGC | 1.06 ± 0.025
87 | GCTTACTGTA | 1.15 ± 0.024
88 | CGATAGAAAG | 1.01 ± 0.024
89 | GAAATTTAGA | 1.01 ± 0.028
90 | TTTAGGGTGG | 1.01 ± 0.012
91 | GGGGACGGTG | 1.03 ± 0.048
92 | GTTGCATTCA | 1.01 ± 0.033
93 | GTTATTTGCT | 0.988 ± 0.02
94 | AAACGCGACT | 1.31 ± 0.2
95 | TTGTTACTTT | 1 ± 0.017
96 | AAGGGTAAGT | 1.005 ± 0.0023
97 | GTTCCGGGGT | 1.05 ± 0.05
98 | CTGTAAGGTC | 1.01 ± 0.019
99 | CGGTGTGGGA | 0.996 ± 0.044
100 | TTCGGGGATT | 1.37 ± 0.58

Row | Sequence | switch fluorescence ratio
101 | ATTTGGCCGG | 1.01 ± 0.04
102 | TTATTGCACG | 1.07 ± 0.068
103 | AACTGCTATC | 1.22 ± 0.036
104 | TTTCCTATTG | 1.01 ± 0.027
105 | GAGTTTTTTC | 0.993 ± 0.018
106 | ATTCGTGGGG | 0.97 ± 0.032
107 | ACTATAGTAT | 1 ± 0.057
108 | CAGGGGATAT | 0.993 ± 0.046
109 | CAGGGTATGA | 1.007 ± 0.0046
110 | GGATTGGTCC | 1.14 ± 0.16
111 | GTTGCAGTCA | 0.949 ± 0.042
112 | TTTGAAATTA | 0.9769 ± 0.003
113 | CGGGACCCCC | 1.141 ± 0.011
114 | TTTCATGTCG | 0.986 ± 0.1
115 | ATCGTGTATG | 0.968 ± 0.028
116 | TGTGCCGCGC | 1.06 ± 0.07
117 | GGTAGGACTC | 1 ± 0.026
118 | TATTAATAGT | 1.01 ± 0.024
119 | TGGGCTCTTT | 1 ± 0.019
120 | TATACCCTTT | 1 ± 0.052
121 | AATGAGTCG | 0.991 ± 0.028
122 | CTATGAAAAG | 1 ± 0.021
123 | TAGCCGTCTG | 1.04 ± 0.039
124 | AGTATGTAGC | 0.997 ± 0.032
125 | ATGGGGGGTG | 1 ± 0.035

Row | Sequence | switch fluorescence ratio
126 | CCTTATTGGG | 1.05 ± 0.037
127 | TTATCTGGGG | 1.01 ± 0.055
128 | GCAGGGTGCG | 1 ± 0.032
129 | TTATCTAGGG | 0.997 ± 0.041
130 | TGTTCGAGGC | 1.03 ± 0.013
131 | TGGCTGGTGT | 1.02 ± 0.08
132 | TCACTATAGG | 1.02 ± 0.036
133 | TACCTGGGTC | 0.996 ± 0.028
134 | TATTCGCTTT | 1.33 ± 0.48
135 | AGAGTAGGGG | 0.979 ± 0.029
136 | AGGTCAGTTA | 0.998 ± 0.028
137 | GGATTTTAAA | 1 ± 0.022
138 | TTGGTTTCCC | 1.01 ± 0.02
139 | AAGGAAAAGT | 1.01 ± 0.035
140 | TGCACGGTTG | 1.002 ± 0.0026
141 | TACAGCTTAA | 1.022 ± 0.0019
142 | CAGCGCGTGC | 1.01 ± 0.051
143 | TGACTTATGT | 1.014 ± 0.0037
144 | ACTGATTTTA | 1.01 ± 0.056
145 | AGAGGTCTAC | 0.982 ± 0.031
146 | TTAAGTTTTT | 0.98835 ± 0.00077
147 | GAGGTGCCAG | 0.992 ± 0.031
148 | TTTCATACGA | 1.01 ± 0.045
149 | GAGGACTGTA | 1.09 ± 0.025
150 | AAAGGTACGA | 1.02 ± 0.016

Row | Sequence | switch fluorescence ratio
151 | CCTGGTGGGA | 0.999 ± 0.014
152 | TTGGGGGAAT | 0.992 ± 0.026
153 | GAATTATGCC | 0.977 ± 0.021
154 | AAAATGTCGA | 1 ± 0.024
155 | TTATTTAGAG | 0.985 ± 0.027
156 | CCGGTTTTCG | 1.09 ± 0.036
157 | TGGGTGTTGT | 1.01 ± 0.034
158 | TGTGGTGTGT | 1 ± 0.03
159 | ACATCCGAGT | 1.05 ± 0.054
160 | TTAACCAAGA | 0.9755 ± 0.0022
161 | TCAATGATAT | 1.02 ± 0.019
162 | TGTGGGTTTA | 0.988 ± 0.033
163 | ATCATGTGGC | 0.989 ± 0.025
164 | TAGGGGAGTT | 0.978 ± 0.04
165 | TAATCAGAGC | 1.02 ± 0.039
166 | AGTTGCATGC | 0.9677 ± 0.0093
167 | CAAAAAGGAG | 0.994 ± 0.019
168 | GTTGGGTTCC | 1.02 ± 0.02
169 | GGGCGCCAGG | 1.33 ± 0.66
170 | GGCTGATTTG | 0.961 ± 0.027
171 | AATTCAGGCA | 0.98668 ± 0.00049
172 | AACTTGTGTG | 0.989 ± 0.042
173 | TCATATTTAA | 1.015 ± 0.0043
174 | ATACTATCTT | 0.996 ± 0.019
175 | GCCGGCAAAT | 0.995 ± 0.051

Row | Sequence | switch fluorescence ratio
176 | ATAGTCGGGC | 0.99 ± 0.022
177 | CTCGTTATGT | 0.9782 ± 0.0065
178 | CAATGGCGTA | 1.013 ± 0.00084
179 | TCTACGAGAG | 1.04 ± 0.048
180 | TCGGCTAAAT | 1.003 ± 0.0063
181 | TACAGCTAAA | 1.03 ± 0.032
182 | TAATAAAGAT | 0.969 ± 0.054
183 | GGTGCGGTTG | 0.9975 ± 0.00035
184 | TTGGTTTTGC | 0.99 ± 0.019
185 | TCTAATACAG | 1.03 ± 0.032
186 | TTCATGTGTG | 1 ± 0.081
187 | CTTGGTTTTT | 1.01 ± 0.022
188 | ATTATGCCG | 0.993 ± 0.06
189 | TCATGTCGGG | 1.005 ± 0.01
190 | TTTTAACTAC | 1.18 ± 0.15
191 | GAAGAAGGTT | 0.99516 ± 0.00083
192 | ATTGTTTTTA | 0.998 ± 0.033
193 | CGGGGTGCGT | 1.02 ± 0.037
194 | AGGTGACTCG | 1.04 ± 0.017
195 | ATCAATATAG | 1.03 ± 0.018
196 | AGAGTGATGT | 1 ± 0.041
197 | CGGAGGTTTG | 1.39 ± 0.62
198 | GAGTTGGGTG | 1.01 ± 0.032
199 | TCGTAAGGGT | 1.18 ± 0.26
200 | GGAGATTTTA | 1.04 ± 0.068
